Experiments:
CD20 (human) [1] = target: CD20 (human) (UniProt P11836); assay: cell-based or functional assay
CD20 (human) [2] = target: CD20 (human) (UniProt P11836); assay: Scatchard analysis, cold antibody against 125I-2H7.v16 on WIL2-S cells

Sequence of CD20 (human) (P11836 whole entry): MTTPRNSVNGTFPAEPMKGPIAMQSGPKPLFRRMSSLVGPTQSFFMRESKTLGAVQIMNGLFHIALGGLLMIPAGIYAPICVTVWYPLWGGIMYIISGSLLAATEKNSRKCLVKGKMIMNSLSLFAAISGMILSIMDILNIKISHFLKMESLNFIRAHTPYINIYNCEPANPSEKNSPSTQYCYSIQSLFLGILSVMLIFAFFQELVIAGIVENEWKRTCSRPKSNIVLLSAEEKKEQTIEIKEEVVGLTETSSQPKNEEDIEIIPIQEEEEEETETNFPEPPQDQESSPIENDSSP

ADCC on WIL2-S cells, EC50(variant)/EC50(2H7.v16) (CD20 (human) [1]): 5.3
ADCC on WIL2-S cells, EC50(variant)/EC50(Rituxan) (CD20 (human) [1]): 1
CDC on WIL2-S cells, EC50(variant)/EC50(Rituxan) (CD20 (human) [1]): 1
fraction of Annexin V stained Ramos cells at 10 nM crosslinked antibody (CD20 (human) [1]): 16.5%
fraction of doubly labeled (Annexin V and propidium iodide) Ramos cells at 10 nM (CD20 (human) [1]): 38%
live Ramos cells counted per 10 s at 10 nM (cells per 10 s) (CD20 (human) [1]): 3100
Kd (CD20 (human) [2]): 990 pM
Substance: Rituxan (rituximab) (antibody)
